Consider ten molecules from patent US7658917 (PRAECIS PHARMACEUTICALS, dated 2010).

Read-outs that look alike come from different tables or passages of the source. Ends that are not written are not given here. * marks the point of attachment. Cholyl = C[C@H](CCC(=O)*)[C@H]1CC[C@H]2[C@@H]3[C@H](O)C[C@@H]4C[C@H](O)CC[C@]4(C)[C@H]3C[C@H](O)[C@]12C; iminobiotinyl = N=C1N[C@H]2[C@H](CS[C@H]2CCCCC(=O)*)N1; FICO = 5-(and 6-)-carboxyfluoresceinyl

Experiment in all cases: cell-based or functional assay
The target in assay [1] is natural β-amyloid peptide β-AP1-40 (human).
Sequence of natural β-amyloid peptide β-AP1-40 (human) (peptide, as listed by the source): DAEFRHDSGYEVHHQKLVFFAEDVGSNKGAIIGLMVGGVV
The target is the same in assay [2]. This is another data set of the same source.
For assay [3] the target is unchanged. This is another data set of the same source.

B1: cholyl-Aβ15-19 (peptide)
peptide: Cholyl-QKLVF-OH
SMILES: CC(C)C[C@H](NC(=O)[C@H](CCCCN)NC(=O)[C@H](CCC(N)=O)NC(=O)CC[C@@H](C)[C@H]1CC[C@H]2[C@@H]3[C@H](O)C[C@@H]4C[C@H](O)CC[C@]4(C)[C@H]3C[C@H](O)[C@]12C)C(=O)N[C@H](C(=O)N[C@@H](Cc1ccccc1)C(=O)O)C(C)C
Regarding B1, in assay [1], the “% Inhibition of Plateau; nucleation assay; 10 mole %” value is roughly 0%, the “% Inhibition of Plateau; nucleation assay; 100 mole %” value (“% Inhibition of Plateau … 100 mole %” below) is roughly 0%, the “Fold Increase in Lag Time; nucleation assay; 10 mole %” value was determined as 1.6 fold and the “Fold Increase in Lag Time; nucleation assay; 100 mole %” value (“Fold Increase in Lag Time … 100 mole %” below) came to 3.1 fold. Besides, in assay [2], the “% Inucl'n; nucleation assay; 100 mole %” value was -23% and the “ΔLag; nucleation assay; 100 mole %” value amounted to 3.1 ratio.
For iminobiotinyl-KLVFF-OH [iminobiotinyl-Aβ16-20], in assay [1], the “% Inhibition of Plateau … 100 mole %” value came to 86% and the “Fold Increase in Lag Time … 100 mole %” value came to 1.3 fold. Moreover, in assay [2], the “% Iext'n; seeded extension assay; 25 mole %” value (from here on “% Iext'n”) is 0%, the “% Inucl'n; nucleation assay; 100 mole %” value is 86% and the “ΔLag; nucleation assay; 100 mole %” value was determined as 1.3 ratio.

B2: cholyl-Aβ16-19-amide (PPI-321 as printed in Table IV) (peptide)
peptide: Cholyl-KLVF-NH2
SMILES: CC(C)C[C@H](NC(=O)[C@H](CCCCN)NC(=O)CC[C@@H](C)[C@H]1CC[C@H]2[C@@H]3[C@H](O)C[C@@H]4C[C@H](O)CC[C@]4(C)[C@H]3C[C@H](O)[C@]12C)C(=O)N[C@H](C(=O)N[C@@H](Cc1ccccc1)C(N)=O)C(C)C
As for B2, in assay [1], the “% Inhibition of Plateau … 100 mole %” value was roughly 0% and the “Fold Increase in Lag Time … 100 mole %” value amounted to 1.2 fold.

B3: cholyl-Aβ17-21 (peptide)
peptide: Cholyl-LVFFA-OH
SMILES: CC(C)C[C@H](NC(=O)CC[C@@H](C)[C@H]1CC[C@H]2[C@@H]3[C@H](O)C[C@@H]4C[C@H](O)CC[C@]4(C)[C@H]3C[C@H](O)[C@]12C)C(=O)N[C@H](C(=O)N[C@@H](Cc1ccccc1)C(=O)N[C@@H](Cc1ccccc1)C(=O)N[C@@H](C)C(=O)O)C(C)C
With B3, in assay [1], the “% Inhibition of Plateau … 100 mole %” value is 100% and the “Fold Increase in Lag Time … 100 mole %” value is greater than 5 fold. Also, in assay [2], the “% Iext'n” value came to 91%, the “% Inucl'n; nucleation assay; 100 mole %” value turned out to be 100% and the “ΔLag; nucleation assay; 100 mole %” value was greater than 5 ratio.
As for iminobiotinyl-SNKGAIIGLMVGGVV [iminobiotinyl-Aβ26-40], in assay [3], the “% Inhibition of Plateau … 100 mole %” value is roughly 0% and the “Fold Increase in Lag Time … 100 mole %” value is 2.3 fold.
Regarding {FICO}-HDSGYEVHHQKLVFF [FICO-Aβ6-20], in assay [3], the “% Inhibition of Plateau … 100 mole %” value is roughly 0% and the “Fold Increase in Lag Time … 100 mole %” value is 1.9 fold.
With {FICO}-DAEFRHDSGYEVHHQ [FICO-Aβ1-15], in assay [3], the “% Inhibition of Plateau … 100 mole %” value was determined as 30% and the “Fold Increase in Lag Time … 100 mole %” value is roughly 1 fold.
For Cholyl-KLTFF [cholyl-Aβ16-20 (Val18->Thr)], in assay [1], the “% Inhibition of Plateau … 100 mole %” value is roughly 0% and the “Fold Increase in Lag Time … 100 mole %” value is roughly 1 fold. In assay [2], the “% Iext'n” value amounted to 44%, the “% Inucl'n; nucleation assay; 100 mole %” value was -16% and the “ΔLag; nucleation assay; 100 mole %” value stood at 1.1 ratio.
For the molecule {FICO}-AEDVGSNKGAIIGLM [FICO-Aβ21-35], in assay [3], the “% Inhibition of Plateau … 100 mole %” value came to 25% and the “Fold Increase in Lag Time … 100 mole %” value stood at 1.2 fold.
For the molecule {FICO}-KLVFFAEDVGSNKGA [FICO-Aβ16-30], in assay [3], the “% Inhibition of Plateau … 100 mole %” value came to 59% and the “Fold Increase in Lag Time … 100 mole %” value is 1.6 fold.
